Reference: EP4671273A1 (Anaveon AG, dated 2025)
Changes are numbered by the printed parent chain.

B1: 21A08Ap1 (antibody, human IgG1, V domains shown)
VH: EVQLLESGGGLVQPGGSLRLSCAASGFTFSINAMTWVRQAPGKGLEWVSTISGSGFSTYYADSLKGRFTISRDNSKNTLYLQMNSLRAEDTAVYYCAKEVYGDYWGQGTLVTVSS
VL: RSVLTQPPSASGTPGQRVSISCSGASSNIGSQSVFWYQQLPGTAPKLLIYSNNQRPSGVPDRFSGSKSGTSASLAISGLRSEDEADYYCAAWDDSLSIWVFGGGTKLTVL
notes: human IgG1; also called anti-PD-1 antibody clone 21A08Ap1
B2: JZW468 (antibody, human IgG1, V domains shown)
VH: B1 VH
VL: B1 VL with S95Q
notes: human IgG1
B3: GZZ692 (antibody, human IgG1, V domains shown)
VH: B1 VH
VL: B1 VL with I49G
notes: human IgG1
B4: NWL270 (antibody, human IgG1, V domains shown)
VH: B1 VH
VL: B1 VL with I98N
notes: human IgG1
B5: KWH245 (antibody, human IgG1, V domains shown)
VH: B1 VH
VL: B1 VL with W36T
notes: human IgG1
B6: KOW427 (antibody, human IgG1, V domains shown)
VH: B1 VH
VL: B1 VL with L48G
notes: human IgG1
B7: KYC847 (antibody, human IgG1, V domains shown)
VH: B1 VH
VL: B1 VL with S97T
notes: human IgG1
B8: JOH712 (antibody, human IgG1, V domains shown)
VH: B1 VH
VL: B1 VL with L40H
notes: human IgG1
B9: GDY271 (antibody, human IgG1, V domains shown)
VH: B1 VH
VL: B1 VL with F35Y
notes: human IgG1
B10: FHX509 (antibody, human IgG1, V domains shown)
VH: B1 VH
VL: B1 VL with I98A
notes: human IgG1
B11: SSR010 (antibody, human IgG1, V domains shown)
VH: B1 VH
VL: B1 VL with I29V
notes: human IgG1
B12: WAZ460 (antibody, human IgG1, V domains shown)
VH: VQLVQSGAEVKKPGASVKVSCKASGYTFTNFYIHWVRQAPGQGLEWMGSIYPNYGITAYNQKFKDRVTMTVDTSTSTAYMELRSLRSDDTAVYYCARGYSYAMDYWGQGTTVTVSS
VL: DIQMTQSPSSVSASVGDRVTITCRASQGISGDLNWYQQKPGKAPKLLIYHTSQLHSDVPSRFSGSGSGTDFTLTISSLQPEDFATYYCQGYSKDLLTFGGGTKLEIK
notes: human IgG1
B13: YCF391 (antibody, human IgG1, V domains shown)
VH: B12 VH with I50T
VL: B12 VL with R24S
notes: human IgG1
B14: ZTD928 (antibody, human IgG1, V domains shown)
VH: B12 VH
VL: B12 VL with R24S, L95T
notes: human IgG1
B15: ZAP122 Fab (Fab, V domains shown)
VH: QVQLQESGPGLVKPSETLSLTCTVSGGSISSDFWGWIRQPPGKGLEWIGYISSRGSTNYNPSLKRRVTISVDTSRNQFSLKLSSVTAADTAVYYCARSAGVTDFDFWGQGTLVTVSS
VL: DIQMTQSPSSVSASVGDRVTITCRASQGISSWLAWYQHKPGKAPKLLIYVASSLQSGVPSRFSGSGSGTDFTLTISSLQPEDFATYYCQQANSFPLTFGGGTKVEIK
notes: Fab; also called ZAP122 wt
B16: MEK904 Fab (Fab, V domains shown)
VH: B15 VH with F33Y, S53Y, R65S, T102A
VL: B15 VL with M4L, N92S
notes: Fab
B17: RPD212 Fab (Fab, V domains shown)
VH: B15 VH with F33Y, S53Y, R54S, R65S, F106A
VL: B15 VL with M4L, N92S
notes: Fab
B18: EJT070 Fab (Fab, V domains shown)
VH: B15 VH with F33Y, S53Y, R54S, R65S, T102A
VL: B15 VL with M4L, N92S
notes: Fab
B19: IFQ920 Fab (Fab, V domains shown)
VH: B15 VH with T102A
VL: B15 VL with F94A
notes: Fab
B20: UER756 Fab (Fab, V domains shown)
VH: B15 VH with F33Y, R54S, R65S, F106A
VL: B15 VL with M4L, N92S
notes: Fab
B21: OWS965 Fab (Fab, V domains shown)
VH: B15 VH with F33Y, S53Y, R54S, R65S, T102A, F106A
VL: B15 VL with M4L, N92S
notes: Fab
B22: JSQ278 Fab (Fab, V domains shown)
VH: B15 VH with F33Y, S53Y, R65S, F106A
VL: B15 VL with M4L, N92S
notes: Fab
B23: IOO459 Fab (Fab, V domains shown)
VH: B15 VH with F33Y, T102A
VL: B15 VL with F94A
notes: Fab
B24: PAI969 Fab (Fab, V domains shown)
VH: B15 VH with F33Y, R54S, R65S, T102A, F106A
VL: B15 VL with M4L, N92S
notes: Fab
B25: ZXI489 Fab (Fab, V domains shown)
VH: B15 VH with F33Y, S53Y, R65S, F106W
VL: B15 VL with M4L, N92S, F94A
notes: Fab
B26: CLJ397 Fab (Fab, V domains shown)
VH: B15 VH with F33Y, S53Y, R65S, T102A, F106A
VL: B15 VL with M4L, N92S
notes: Fab
B27: VPH777 Fab (Fab, V domains shown)
VH: B15 VH with F33Y, R54S, R65S, T102A
VL: B15 VL with M4L, N92S
notes: Fab

Target: T1, human PD-1 (#PD1-H82E4, AcroBiosystems) (human, UniProt Q15116 25-167)
T1 construct: bought
T1 sequence (Q15116 25-167 limits assumed): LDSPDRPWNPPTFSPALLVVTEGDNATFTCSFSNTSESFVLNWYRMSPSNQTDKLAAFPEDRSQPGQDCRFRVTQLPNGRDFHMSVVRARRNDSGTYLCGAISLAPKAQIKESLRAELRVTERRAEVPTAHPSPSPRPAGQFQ
Experiment: SPR, PD-1 on captured IgG1

| Kd | koff | kon | Binder |
| --- | --- | --- | --- |
| 1.27 nM | 0.00011 s⁻¹ | 86800 M⁻¹ s⁻¹ | B1 |
| 0.631 nM | 9.2e-05 s⁻¹ | 146000 M⁻¹ s⁻¹ | B2 |
| 1.41 nM | 0.000209 s⁻¹ | 148000 M⁻¹ s⁻¹ | B3 |
| 0.229 nM | 9.82e-05 s⁻¹ | 429000 M⁻¹ s⁻¹ | B4 |
| 0.183 nM | 0.000305 s⁻¹ | 1.67e+06 M⁻¹ s⁻¹ | B5 |
| 0.586 nM | 7.97e-05 s⁻¹ | 136000 M⁻¹ s⁻¹ | B6 |
| 0.528 nM | 7.59e-05 s⁻¹ | 144000 M⁻¹ s⁻¹ | B7 |
| 0.546 nM | 8.88e-05 s⁻¹ | 163000 M⁻¹ s⁻¹ | B8 |
| 3.56 nM | 0.0013 s⁻¹ | 364000 M⁻¹ s⁻¹ | B9 |
| 0.694 nM | 8.38e-05 s⁻¹ | 121000 M⁻¹ s⁻¹ | B10 |
| 0.0767 nM | 0.000199 s⁻¹ | 2.6e+06 M⁻¹ s⁻¹ | B11 |

Target: T2, cynomolgus PD-1 (#PD1-C52H5, AcroBiosystems) (cynomolgus monkey, UniProt B0LAJ3 25-170)
T2 construct: bought; also called cynomolgus monkey PD-1; not shown: the vendor's tag on the recombinant protein (AcroBiosystems #PD1-C52H5)
T2 sequence (B0LAJ3 entry or part of it limits assumed, form in doubt): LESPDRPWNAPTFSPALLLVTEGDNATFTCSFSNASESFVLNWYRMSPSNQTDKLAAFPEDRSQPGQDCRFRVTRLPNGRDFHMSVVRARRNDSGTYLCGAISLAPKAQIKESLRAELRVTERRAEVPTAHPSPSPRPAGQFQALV
Experiment: SPR, PD-1 on captured IgG1

| Kd | koff | kon | Binder |
| --- | --- | --- | --- |
| 1.25 nM | 0.000259 s⁻¹ | 206000 M⁻¹ s⁻¹ | B1 |
| 0.959 nM | 0.00029 s⁻¹ | 302000 M⁻¹ s⁻¹ | B2 |
| 4.5 nM | 0.00153 s⁻¹ | 340000 M⁻¹ s⁻¹ | B3 |
| 0.949 nM | 0.00015 s⁻¹ | 158000 M⁻¹ s⁻¹ | B4 |
| 2.29 nM | 0.000644 s⁻¹ | 281000 M⁻¹ s⁻¹ | B5 |
| 1.27 nM | 0.000296 s⁻¹ | 233000 M⁻¹ s⁻¹ | B6 |
| 0.597 nM | 0.000139 s⁻¹ | 233000 M⁻¹ s⁻¹ | B7 |
| 1.11 nM | 0.000252 s⁻¹ | 227000 M⁻¹ s⁻¹ | B8 |
| 6.38 nM | 12.2 s⁻¹ | 1.91e+09 M⁻¹ s⁻¹ | B9 |
| 0.699 nM | 0.000239 s⁻¹ | 341000 M⁻¹ s⁻¹ | B10 |
| 1.14 nM | 0.000301 s⁻¹ | 263000 M⁻¹ s⁻¹ | B11 |

Target: T1, human PD-1 (#PD1-H82E4, AcroBiosystems)
Experiment: SPR, PD-1 on captured IgG1
Remark: another data set of the same source

| Kd | koff | kon | Binder |
| --- | --- | --- | --- |
| 0.515 nM | 0.000202 s⁻¹ | 393000 M⁻¹ s⁻¹ | B12 |
| 0.808 nM | 0.000336 s⁻¹ | 416000 M⁻¹ s⁻¹ | B13 |
| 0.801 nM | 0.00028 s⁻¹ | 349000 M⁻¹ s⁻¹ | B14 |

Target: T2, cynomolgus PD-1 (#PD1-C52H5, …)
Experiment: SPR, PD-1 on captured IgG1
Remark: another data set of the same source

| Kd | koff | kon | Binder |
| --- | --- | --- | --- |
| 0.331 nM | 0.00016 s⁻¹ | 485000 M⁻¹ s⁻¹ | B12 |
| 0.664 nM | 0.00026 s⁻¹ | 391000 M⁻¹ s⁻¹ | B13 |
| 0.502 nM | 0.000243 s⁻¹ | 483000 M⁻¹ s⁻¹ | B14 |

Target: T3, Recombinant hIL-21-Fc (AcroBiosystems) (human, UniProt Q9HBE4 30-162)
T3 construct: bought; also called rhIL-21; not shown: Fc of the bought reagent, not described
T3 sequence (Q9HBE4 30-162): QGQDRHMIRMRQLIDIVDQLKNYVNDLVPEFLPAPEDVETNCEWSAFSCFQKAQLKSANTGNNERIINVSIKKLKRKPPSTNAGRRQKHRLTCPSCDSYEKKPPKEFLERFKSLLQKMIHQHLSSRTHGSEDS
Experiment: SPR, Fab on captured rhIL-21-Fc

| Kd | koff | kon | Binder |
| --- | --- | --- | --- |
| < 0.0265 nM | < 1e-05 s⁻¹ | 377000 M⁻¹ s⁻¹ | B15 |

Target: T4, rhIL-21-His (AB235875-1001, Abcam) (human, UniProt Q9HBE4 30-162)
T4 construct: bought; not shown: His tag, length and position not described
T4 sequence (Q9HBE4 30-162 limits assumed): as the sequence (Q9HBE4 30-162) above
Experiment: SPR, Fab on captured rhIL-21-His

| Kd | koff | kon | Binder |
| --- | --- | --- | --- |
| 0.313 nM | 6.91e-05 s⁻¹ | 221000 M⁻¹ s⁻¹ | B15 |
| 0.69 nM | 0.00015 s⁻¹ | 210000 M⁻¹ s⁻¹ | B16 |
| 1.1 nM | 0.00015 s⁻¹ | 130000 M⁻¹ s⁻¹ | B17 |
| 0.82 nM | 0.0002 s⁻¹ | 250000 M⁻¹ s⁻¹ | B18 |
| 8.28 nM | 0.00233 s⁻¹ | 281000 M⁻¹ s⁻¹ | B19 |
| 0.81 nM | 0.00011 s⁻¹ | 140000 M⁻¹ s⁻¹ | B20 |
| 2 nM | 0.00017 s⁻¹ | 87000 M⁻¹ s⁻¹ | B21 |
| 0.56 nM | 0.00015 s⁻¹ | 270000 M⁻¹ s⁻¹ | B22 |
| 15.6 nM | 0.0222 s⁻¹ | 1.42e+06 M⁻¹ s⁻¹ | B23 |
| 0.98 nM | 0.00014 s⁻¹ | 140000 M⁻¹ s⁻¹ | B24 |
| 7.04 nM | 0.00484 s⁻¹ | 688000 M⁻¹ s⁻¹ | B25 |
| 0.55 nM | 0.00015 s⁻¹ | 270000 M⁻¹ s⁻¹ | B26 |
| 0.73 nM | 0.0001 s⁻¹ | 140000 M⁻¹ s⁻¹ | B27 |
